Experiment [1] deals with T1, human CD1a expressed on cells (human, UniProt P06126 17-327; P61769 21-119).
T1 construct: also called HEK - CD1a; C1R - CD1a
In words: flow cytometry of ear skin cells of CD1a transgenic mice given antibody 116 100 µg i.p. on days 0, 2, 4 (CD1a : OX116), stained with SK9 on day 5; no percent sign printed.

The target of experiment [2] is T1, human CD1a expressed on cells. In words: flow cytometry of ear skin cells of CD1a transgenic mice given isotype control (CD1a : iso), stained with SK9; gated population not named on the sheet; no percent sign printed.
For experiment [3] the target is unchanged. The experiment can be described thus: flow cytometry of ear skin cells of CD1a transgenic mice given isotype control (CD1a : iso), stained with HI149; gated population not named on the sheet; no percent sign printed.
For experiment [4] the target is unchanged. In words: flow cytometry of ear skin cells of CD1a transgenic mice given antibody 116 100 µg i.p. on days 0, 2, 4 (CD1a : OX116), stained with HI149 on day 5; the cloud lies on the lower edge of the gate; no percent sign printed.
The target of experiment [5] is Chinese variant CD1a protein (human) (UniProt P06126). The experiment can be described thus: ELISA, 1 µg/ml antibody.
Chain of Chinese variant CD1a protein (human) (P06126 18-295, stated change not applied): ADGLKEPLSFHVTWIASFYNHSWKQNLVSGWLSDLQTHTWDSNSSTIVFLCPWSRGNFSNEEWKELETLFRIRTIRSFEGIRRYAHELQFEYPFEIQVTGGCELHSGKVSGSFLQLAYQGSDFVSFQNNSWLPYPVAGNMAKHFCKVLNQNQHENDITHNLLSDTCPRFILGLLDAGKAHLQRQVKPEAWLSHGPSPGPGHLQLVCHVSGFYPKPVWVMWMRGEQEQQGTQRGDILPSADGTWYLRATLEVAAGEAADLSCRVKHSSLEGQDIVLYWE
In experiment [6] the target is chimeric CD1a pool B protein [human CD1a lipid binding domain, mouse CD1d Ig domain] (human; mouse) (UniProt P06126). The experiment can be described thus: ELISA, 1 µg/ml antibody.
Chain of chimeric CD1a pool B protein [human CD1a lipid binding domain, mouse CD1d Ig domain] (human; mouse) (P06126 other isoform, or with tags, fused parts or gaps mutant limits assumed): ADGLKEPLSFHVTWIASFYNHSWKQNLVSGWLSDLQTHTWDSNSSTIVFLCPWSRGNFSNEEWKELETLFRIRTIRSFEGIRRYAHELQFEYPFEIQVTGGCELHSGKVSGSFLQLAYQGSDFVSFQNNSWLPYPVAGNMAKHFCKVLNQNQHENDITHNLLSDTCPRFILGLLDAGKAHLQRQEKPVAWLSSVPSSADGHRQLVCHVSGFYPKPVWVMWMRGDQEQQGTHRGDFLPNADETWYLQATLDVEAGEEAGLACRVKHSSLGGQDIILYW
Experiment [7] deals with Chinese variant CD1a protein (human) (UniProt P06126). The experiment can be described thus: ELISA, 10 µg/ml antibody.
Experiment [8] concerns the target chimeric CD1a pool B protein [human CD1a lipid binding domain, mouse CD1d Ig domain] (human; mouse) (UniProt P06126). The experiment can be described thus: ELISA, 10 µg/ml antibody.
For experiment [9] the target is unchanged. The experiment can be described thus: ELISA, 100 µg/ml antibody.
For experiment [10], the target named is Chinese variant CD1a protein (human) (UniProt P06126). In words: ELISA, 0.1 µg/ml antibody.
The target of experiment [11] is chimeric CD1a pool B protein [human CD1a lipid binding domain, mouse CD1d Ig domain] (human; mouse) (UniProt P06126). The experiment can be described thus: ELISA, 0.1 µg/ml antibody.
Experiment [12] addresses T2, human CD1a protein (pool B) (human, UniProt P06126 18-295, limits assumed).
T2 construct: Recombinant protein of the ELISA (coated) and the Biacore T200 titration; whole entry named; also called human CD1a pool B; full length CD1a
The experiment can be described thus: ELISA, 3.16 µg/ml antibody.

In experiment [13] the target is chimeric CD1a pool B protein [human CD1a lipid binding domain, mouse CD1d Ig domain] (human; mouse) (UniProt P06126). In words: ELISA, 3.16 µg/ml antibody.
Experiment [14] has as its target T2, human CD1a protein (pool B). In words: ELISA, 31.6 µg/ml antibody.
Experiment [15] concerns the target chimeric CD1a pool B protein [human CD1a lipid binding domain, mouse CD1d Ig domain] (human; mouse) (UniProt P06126). The experiment can be described thus: ELISA, 31.6 µg/ml antibody.
Experiment [16] concerns the target Chinese variant CD1a protein (human) (UniProt P06126). In words: ELISA, 0.01 µg/ml antibody.
In experiment [17] the target is chimeric CD1a pool B protein [human CD1a lipid binding domain, mouse CD1d Ig domain] (human; mouse) (UniProt P06126). In words: ELISA, 0.316 µg/ml antibody.
Experiment [18] has the same target. In words: ELISA, 0.0316 µg/ml antibody.
Experiment [19] has as its target T2, human CD1a protein (pool B). The experiment can be described thus: ELISA, 1 µg/ml antibody.
Experiment [20] has as its target T3, Cynomolgus monkey CD1a protein (Cynomolgus monkey).
T3 chain: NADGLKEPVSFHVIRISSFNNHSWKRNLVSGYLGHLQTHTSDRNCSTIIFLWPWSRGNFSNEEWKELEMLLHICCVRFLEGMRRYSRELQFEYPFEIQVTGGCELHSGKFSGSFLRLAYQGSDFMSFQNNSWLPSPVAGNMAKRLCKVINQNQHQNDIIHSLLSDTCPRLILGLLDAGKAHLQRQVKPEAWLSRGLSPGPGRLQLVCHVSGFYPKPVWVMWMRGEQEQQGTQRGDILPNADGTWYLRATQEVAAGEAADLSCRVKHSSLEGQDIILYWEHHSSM
In words: ELISA, 1 µg/ml antibody.

The target of experiment [21] is T2, human CD1a protein (pool B). The experiment can be described thus: ELISA, 10 µg/ml antibody.
Experiment [22] has as its target T3, Cynomolgus monkey CD1a protein. In words: ELISA, 10 µg/ml antibody.
Experiment [23] addresses T2, human CD1a protein (pool B). In words: ELISA, 0.1 µg/ml antibody.
Experiment [24] has the same target. In words: ELISA, 100 µg/ml antibody.
In experiment [25] the target is T3, Cynomolgus monkey CD1a protein. In words: ELISA, 0.1 µg/ml antibody.
Experiment [26] shares this target. The experiment can be described thus: ELISA, 0.01 µg/ml antibody.
Experiment [27] addresses T2, human CD1a protein (pool B). In words: ELISA, 0.316 µg/ml antibody.
For experiment [28] the target is unchanged. In words: ELISA, 0.0316 µg/ml antibody.
The target of experiment [29] is Chinese variant CD1a protein (human) (UniProt P06126). In words: ELISA on coated minor CD1A variant protein; antibody concentration not given.
The target of experiment [30] is chimeric CD1a pool B protein [human CD1a lipid binding domain, mouse CD1d Ig domain] (human; mouse) (UniProt P06126). The experiment can be described thus: ELISA on chimeric CD1a (human alpha 1 and alpha 2 domains, murine CD1d alpha 3 domain), size exclusion pool B; antibody concentration not given.
For experiment [31], the target named is T2, human CD1a protein (pool B). The experiment can be described thus: Biacore, column KD1 of the heterogeneous ligand model; no unit on the sheet or in the legend, M taken from Table 10 of the same Biacore method.
Experiment [32] shares this target. In words: Biacore, column KD2 of the heterogeneous ligand model; no unit on the sheet or in the legend, M taken from Table 10 of the same Biacore method.
Experiment [33] addresses T4, Human CD1a/β2m heterodimer (soluble, de-glycosylated) (human, UniProt P61769 21-119).
T4 construct: Expressed in HEK293S cells with fos-jun zippers, BirA tag and His-tag, which were cleaved off with thrombin; deglycosylated with EndoH; Carries endogenous lipids or a loaded lipid (named under assay); also called CD1a-endo; CD1a-sphingomyelin
In words: SPR, OX16-scFv immobilised, CD1a-GD3 (GD3 ganglioside) injected up to 1000 nM; 1:1 specific binding fit; row printed as Kd, unit nM from the legend paragraph 90.

The target of experiment [34] is T4, Human CD1a/β2m heterodimer (soluble, …). In words: SPR, OX16-scFv immobilised, CD1a-SM24:1 (sphingomyelin) injected up to 1000 nM; 1:1 specific binding fit; row printed as Kd, unit nM from the legend paragraph 90.
Experiment [35] has the same target. In words: SPR, OX16-scFv immobilised, CD1a-LPC (lysophosphatidylcholine) injected up to 1000 nM; 1:1 specific binding fit; row printed as Kd, unit nM from the legend paragraph 90.
Experiment [36] has the same target. The experiment can be described thus: SPR, OX16-scFv immobilised on streptavidin chip, CD1a-endo (endogenous lipids) injected up to 1000 nM; 1:1 specific binding fit of response against concentration; row printed as Kd, unit nM from the legend paragraph 90.
Experiment [37] shares this target. The experiment can be described thus: SPR, OX116-scFv immobilised, CD1a-GD3 (GD3 ganglioside) injected up to 1000 nM; 1:1 specific binding fit; row printed as Kd, unit nM from the legend paragraph 90.
For experiment [38] the target is unchanged. In words: SPR, OX116-scFv immobilised, CD1a-SM24:1 (sphingomyelin) injected up to 1000 nM; 1:1 specific binding fit; row printed as Kd, unit nM from the legend paragraph 90.
Experiment [39] has the same target. In words: SPR, OX116-scFv immobilised, CD1a-LPC (lysophosphatidylcholine) injected up to 1000 nM; 1:1 specific binding fit; row printed as Kd, unit nM from the legend paragraph 90.
Experiment [40] shares this target. The experiment can be described thus: SPR, OX116-scFv immobilised on streptavidin chip, CD1a-endo (endogenous lipids) injected up to 1000 nM; 1:1 specific binding fit of response against concentration; row printed as Kd, unit nM from the legend paragraph 90.

T2 sequence (P06126 18-295 limits assumed): as the sequence (P06126 18-295, stated change not applied) above

With SK9 (antibody), the CD1a+ (gate frequency) in [1] is 87.4%; in [2], 84.9%.

With HI149 (antibody), the CD1a+ (gate frequency) in experiment [3] amounted to 82.2%; in experiment [4] it was 46.6%.

Regarding control rabbit IgG antibody, the Optical Density (OD) came out at 0.08 OD in experiment [5]; 0.09 OD in [6]; 0.14 OD in experiment [7]; 0.08 OD in [8]; 0.08 OD in experiment [9]; 0.08 OD in [10]. The Optical Density (OD) in [11] was 0.08 OD; in [12], 0.06 OD; in [13], 0.1 OD; in experiment [14], 0.06 OD; in experiment [15], 0.08 OD; in experiment [16] it was 0.08 OD. The Optical Density (OD) in experiment [17] is 0.09 OD; in experiment [18], 0.09 OD; in [19] it was 0.07 OD; in [20], 0.07 OD; in experiment [21], 0.07 OD; in [22] it was 0.09 OD. Also, the Optical Density (OD) in experiment [23] is 0.06 OD; in [24] it was 0.07 OD; in experiment [25], 0.07 OD; in [26], 0.06 OD; in [27] it was 0.07 OD; in [28], 0.06 OD.

B1: OX25 (antibody, V domains shown)
VH: QVQLQQSGPGLVAPSQSLFITCTVSGFSLTTYEINWVRQPPGKGLEWLGVIWTGGSTNYNSALISRLSISKDNSKSLVFLKMNSLQTDDTAIYYCVRTLPYYYAMDYWGQGTSVTVSS
VL: EIVLTQSPALMAASPGEKVTITCSVSSSISSSNLHWYQQKSGTSPKPWIYGTSNLASGVPVRFSGSGSGTSYSLTISSMEAEDAATYYCQQWSSYPPTFGSGTKLEIK
notes: also called antibody 25; Ab 25
As to B1, the optical density (ELISA) in [29] came out at 0.736; in [30], 0.11. In addition, the figures for the dissociation constant (Kd) in experiment [31] and in experiment [32] were 15 nM and 2.1 nM, respectively.

B2: OX16 scFv (scFv)
scFv: DAEVQLVESGGGLVKPGGSLKLSCAASGFTFSNYAMSWVRQTPEKRLEWVAAINSNGGSAYYPDTVKDRFTISRDNAKNTLYLQMSSLRSEDTALYYCARRFYYDYGWFAYWGQGTLVTVSSGGGGSGGGGSGGGGSDIVLTQSPASLSASVGETVTITCRASENIDSYLAWYQQKQGKSPQLLVYAATLLADGVPSRFSGSGSGTQYSLKINSLQSEDVARYYCQHYYSSPWTFGGGTKLEIKSGLEVLFQGPGSGLNDIFEAQKIEWHEHHHHHH
notes: SPR: biotinylated on the C-terminal tag and coupled to streptavidin; Crystals: BirA and His-tag cleaved off with 3C protease; also called 16 ScFv full; single chain variable construct of OX16
Take B2: the Kd was 1270 nM in [33], 860 nM in experiment [34], 1010 nM in experiment [35] and 476 nM in experiment [36].

B3: OX116 scFv (scFv)
scFv: DAQSVEESGGRLVTPGTPLTLTCTVSGFSLSNYAMSWVRQAPGKGLEWIGIIYTTGFTYYASWVKGRFTISKTSTTVDLKITSPTTEDTATYFCARGLATYVSPPTRLDLWGQGTLVTVSSGGGGSGGGGSGGGGSAQVLTQTPSPVSAAVGGTVTINCQASQSIYNSKNLAWYQQKPGQPPKLLIYSASTLASGVPSRFKGSGSGTQFTLTISDLESDDAATYYCQGEFSCSSVDCATFGGGTEVVVKSGLEVLFQGPGSGLNDIFEAQKIEWHEHHHHHH
notes: SPR: biotinylated on the C-terminal tag and coupled to streptavidin; Crystals: tags cleaved off with 3C protease; also called OX116 Ab fragment
For B3, the Kd in [37] was 329 nM; in experiment [38] it was 529 nM; in experiment [39], 1520 nM; in experiment [40] it was 483 nM.

These data come from patent US20250289893A1 (OXFORD UNIVERSITY INNOVATION, published 2025).
